The values that follow come from the RNAGym collection of RNA variant scans (doi:10.1093/molbev/msab373).

B1: Azoarcus group I ribozyme (parent)
chain: GUGCCUUGCGCCGGGAAACCACGCAAGGGAUGGUGUCAAAUUCGGCGAAACCUAAGCGCCCGCCCGGGCGUAUGGCAACGCCGAGCCAAGCUUCGGCGCCUGCGCCGAUGAAGGUGUAGAGACUAGACGGCACCCACCUAAGGCAAACGCUAUGGUGAAGGCAUAGUCCAGGGAGUGGCGAAAGUCACACAAACCGG

This data set covers variants of B1. Nature of the data set: reverse-splicing fitness (ratio to wild type); higher = more active; in vitro selection; Mg2+ level not given. The gist of the method: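 An in vitro group I ribozyme library with randomized positions was T7-transcribed and gel-purified. In triplicate, 10 pmol RNA in EPPS pH 7.5 was reacted with 50 pmoles of a 30-nt RNA substrate for 1 h at 37 °C across several added MgCl2 levels (1–48 mM), then stopped with EDTA. Products were reverse transcribed from a substrate-complementary primer, PCR-amplified and sequenced (HiSeq 4000). Fitness is a variant's read proportion after selection over that before, normalised to wild type.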
Consider C82A A111U A120C A145G C169G U176A, for which the reverse-splicing fitness came to 0.0259.
With C82A A111U A120C A145G C169G U176G the figure was 0.00647; with C82A A111U A120C A145G C150G C169G U176A, 0.0112.
As for C82A A111U A120C A145G C150G C169G U176C, the reverse-splicing fitness was 0.0155.
C82A A111U A120C A145G C150G C169G U176G: the reverse-splicing fitness was found to be 0.00673.
With C82A A111U A120C A145C C150A the figure was 0.012; with C82A A111U A120C A145C C150G, 0.00984.
For C82A A111U A120C A145C C150U, the reverse-splicing fitness is 0.0149.
The figure for C82A A111U A120C A145U C169G is 0.0114.
Turning to C82A A111U A120C A145U C169A, the reverse-splicing fitness was found to be 0.00981.
With C82A A111U A120C A145U C169U the figure was 0.0129; with C82A A111U A120C C150G U176A, 0.00671.
With C82A A111U A120C C150G U176C the figure was 0.0098; with C82A A111U A120C C150G U176G, 0.00421.
On to C82A A111U A120C A145C C150U C169A U176G, for which the reverse-splicing fitness is 0.00873.
The figure for C82A A111U A120C A145C C150U C169A U176A is 0.0182.
Turning to C82A A111U A120C A145C C150U C169A U176C, the reverse-splicing fitness was found to be 0.0162.
The figure for C82A A111G C150G U176A is 0.00793; for C82A A111G C150G U176G it is 0.004; for C82A A111G C150G U176C it is 0.0152.
The figure for C82A A111U A120C A145C C150G C169U is 0.00963; for C82A A111U A120C A145C C150G C169G it is 0.00743.
As for C82A A111U A120C A145C C150G C169A, the reverse-splicing fitness turned out to be 0.00897.
On to C82A A111U A120C C150U C169A, for which the reverse-splicing fitness was 0.0109.
With C82A A111U A120C C150U C169U the figure was 0.0121; with C82A A111U A120C C150U C169G, 0.00831; with C82A A111U A120C A145U C169G U176G, 0.00642.
As for C82A A111U A120C A145U C169G U176C, the reverse-splicing fitness was found to be 0.0253.
The figure for C82A A111U A120C A145U C169G U176A is 0.0204; for C82A A111U A120C A145U C150G U176C it is 0.00808.
The figure for C82A A111U A120C A145U C150G U176G is 0.00439.
The figure for C82A A111U A120C A145U C150G U176A is 0.00752.
C82A A111G A145U C150U U176C: the reverse-splicing fitness came out at 0.166.
With C82A A111G A145U C150U U176A the figure was 0.106.
With C82A A111G A145U C150U U176G the figure was 0.0305; with C82A A111U A120C C150G C169G U176A, 0.00746.
As to C82A A111U A120C C150G C169G U176G, the reverse-splicing fitness was 0.00574.
For C82A A111U A120C C150G C169G U176C, the reverse-splicing fitness came out at 0.00529.
With C82A A111U A120C A145G C150G C169U U176G, the reverse-splicing fitness is 0.00787.
With C82A A111U A120C A145G C150G C169U U176C the figure was 0.0129; with C82A A111U A120C A145G C150G C169U U176A, 0.0146; with C82A A111U A120C A145U U176G, 0.00733.
Consider C82A A111U A120C A145U U176A, for which the reverse-splicing fitness came out at 0.0168.
As for C82A A111U A120C A145U U176C, the reverse-splicing fitness is 0.0276.
With C82A A111G C150A C169G U176C, the reverse-splicing fitness was 0.0249.
With C82A A111G C150A C169G U176G, the reverse-splicing fitness was found to be 0.00691.
The figure for C82A A111G C150A C169G U176A is 0.0221; for C82A A111U A120C A145U C150U U176G it is 0.00684.
With C82A A111U A120C A145U C150U U176A the figure was 0.0138; with C82A A111U A120C A145U C150U U176C, 0.0191; with C82A A111U A120C A145G C150A C169G, 0.00972.
For the variant C82A A111U A120C A145G C150A C169U, the reverse-splicing fitness came out at 0.0104.
As for C82A A111U A120C A145G C150A C169A, the reverse-splicing fitness turned out to be 0.0122.
With C82A A111G C150A U176G the figure was 0.0144; with C82A A111G C150A U176C, 0.0387.
Regarding C82A A111G C150A U176A, the reverse-splicing fitness is 0.0284.
In the case of C82A A111G C169A U176C, the reverse-splicing fitness was found to be 0.019.
Turning to C82A A111G C169A U176G, the reverse-splicing fitness was 0.00616.
For the variant C82A A111G C169A U176A, the reverse-splicing fitness was 0.0155.
The figure for C82A A111U A120C is 0.0268.
As to C82A A111U A120C A145U C150U C169U U176G, the reverse-splicing fitness came to 0.00816.
In the case of C82A A111U A120C A145U C150U C169U U176A, the reverse-splicing fitness is 0.0157.
On to C82A A111U A120C A145U C150U C169U U176C, for which the reverse-splicing fitness was 0.0137.
With C82A A111U A120C A145U C150A C169U U176A the figure was 0.0174.
The figure for C82A A111U A120C A145U C150A C169U U176G is 0.00856; for C82A A111U A120C A145U C150A C169U U176C it is 0.0133; for C82A A111U A120C A145C C150U C169G U176A it is 0.0356.
The figure for C82A A111U A120C A145C C150U C169G U176G is 0.00842.
For the variant C82A A111U A120C A145C C150U C169G U176C, the reverse-splicing fitness is 0.0353.
With C82A A111G C150G C169U U176A the figure was 0.00656; with C82A A111G C150G C169U U176C, 0.0125; with C82A A111G C150G C169U U176G, 0.00537.
On to C82A A111G A145U C150U C169U U176C, for which the reverse-splicing fitness worked out at 0.0116.
With C82A A111G A145U C150U C169U U176G the figure was 0.00658; with C82A A111G A145U C150U C169U U176A, 0.014.
With C82A A111U A120C A145G U176G the figure was 0.00731; with C82A A111U A120C A145G U176C, 0.0361.
As for C82A A111U A120C A145G U176A, the reverse-splicing fitness was 0.0187.
The figure for C82A A111U A120C A145U C169U U176C is 0.0156.
On to C82A A111U A120C A145U C169U U176G, for which the reverse-splicing fitness amounted to 0.00555.
Take C82A A111U A120C A145U C169U U176A: the reverse-splicing fitness was 0.0151.
With C82A A111U A120C A145U C150G C169A U176C the figure was 0.0116.
With C82A A111U A120C A145U C150G C169A U176G the figure was 0.00766.
The figure for C82A A111U A120C A145U C150G C169A U176A is 0.0117.
